According to patent US20190322730A1 (NGM BIOPHARMACEUTICALS, published 2019):
Positions count from the first letter of the chain named. Numbers in names are those of the source. Values belong to the binder of their own block, whether it stands above or below them.

Columns and labels:
[1] = biological target: T1, human complement component C3 (human, UniProt P01024 23-667; P01024 672-1663); assay: cell-based or functional assay
[2] = biological target: T2, cynomolgus monkey complement component C3 (cynomolgus monkey, UniProt P01024 24-1663 (human entry)); assay: SPR (Biacore), 37 C
T2 construct: In the hemolysis assays cyno serum was the source of C3; also called cyno C3
Method: (§1) The binding affinities of exemplary anti-C3 antibodies to human C3 and cyno C3 were measured using a Biacore system (GE Healthcare LifeSciences). Briefly, anti-Fc antibody (Sigma-Aldrich) was immobilized on all four flow cells of a CM5 chip using amine coupling reagents (GE Healthcare LifeSciences). Antibodies were captured on flow cells 2, 3, and 4 using flow cell 1 as a reference. Concentrations ranging from 0.62-40 nM of human C3 or cyno C3 were injected at a flow rate of 50 μL/min at 37° C. Kinetic data were collected over time and fit using the simultaneous global fit equation to yield affinity constants (KD values) for each antibody.

[3] = biological target: T1, human complement component C3; assay: SPR (Biacore), antibody captured by anti-Fc, C3 injected, 25 C; 25° C.
Method: as §1
(§2) A Biacore system was used to assess the binding affinities of the different molecules to human C3. […] Human C3 (concentration range 12-100 nM) was injected at a flow rate of 50 μL/min.

[4] = biological target: T1, human complement component C3; assay: cell-based or functional assay; remark: listed apart in the source
[5] = biological target: T1, human complement component C3; assay: cell-based or functional assay; remark: listed apart in the source
[6] = biological target: T2, cynomolgus monkey complement component …; assay: cell-based or functional assay
[7] = biological target: T1, human complement component C3; assay: cell-based or functional assay; remark: listed apart in the source
[8] = biological target: T1, human complement component C3; assay: SPR (Biacore), antibody captured by anti-Fc, C3 injected, 37 C
Method: as §1, §2

[9] = biological target: T1, human complement component C3; assay: SPR (Biacore); Intact antibody
[10] = biological target: T1, human complement component C3; assay: SPR (Biacore)
Method: as §1

[11] = biological target: T1, human complement component C3; assay: SPR (Biacore); remark: listed apart in the source
[12] = biological target: T2, cynomolgus monkey complement component …; assay: cell-based or functional assay; remark: listed apart in the source
[13] = biological target: T1, human complement component C3; assay: cell-based or functional assay; remark: listed apart in the source
C3d = biological target: T3, C3d (UniProt P01024 1002-1303, limits assumed); assay: binding screen of Example 5; method and unit not stated
T3 construct: domain: C3d

Factor Bb = biological target: T4, Factor Bb (UniProt P00751 260-764); assay: as above
T4 construct: domain: Factor Bb

C3a = C3a (human, UniProt P01024 672-748); assay: as above
C3b = C3b (human, UniProt P01024 23-667; P01024 749-1663); assay: as above
[14] = biological target: T1, human complement component C3; assay: as above
[15] = biological target: T2, cynomolgus monkey complement component …; assay: SPR (Biacore), antibody captured by anti-Fc, C3 injected 0.62-40 nM, 37 C
Method: as §1

[16] = biological target: T1, human complement component C3; assay: as above
Method: as §1

T4 sequence (P00751 260-764 limits assumed): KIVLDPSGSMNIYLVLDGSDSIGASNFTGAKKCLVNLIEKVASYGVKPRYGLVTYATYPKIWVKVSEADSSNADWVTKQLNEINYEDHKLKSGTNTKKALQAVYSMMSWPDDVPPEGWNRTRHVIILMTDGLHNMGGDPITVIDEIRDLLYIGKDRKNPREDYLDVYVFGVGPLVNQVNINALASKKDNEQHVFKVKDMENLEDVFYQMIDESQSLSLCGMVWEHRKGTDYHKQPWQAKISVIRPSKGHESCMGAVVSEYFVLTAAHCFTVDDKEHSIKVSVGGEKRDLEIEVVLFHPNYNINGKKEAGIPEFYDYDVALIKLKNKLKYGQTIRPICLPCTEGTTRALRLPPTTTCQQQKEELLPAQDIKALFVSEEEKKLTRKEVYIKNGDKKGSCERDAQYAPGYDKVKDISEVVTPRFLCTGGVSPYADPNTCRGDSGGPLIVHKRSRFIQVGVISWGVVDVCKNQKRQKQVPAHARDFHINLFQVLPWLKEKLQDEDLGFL
T3 sequence (P01024 1002-1303 limits assumed): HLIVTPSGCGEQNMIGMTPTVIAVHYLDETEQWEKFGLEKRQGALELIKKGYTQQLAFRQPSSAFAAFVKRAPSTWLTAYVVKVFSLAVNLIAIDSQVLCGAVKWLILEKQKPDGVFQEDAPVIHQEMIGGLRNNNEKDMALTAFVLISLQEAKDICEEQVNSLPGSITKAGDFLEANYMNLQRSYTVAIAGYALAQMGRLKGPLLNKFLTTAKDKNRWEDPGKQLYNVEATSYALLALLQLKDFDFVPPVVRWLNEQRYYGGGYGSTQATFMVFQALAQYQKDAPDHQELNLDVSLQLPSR
T1 sequence (P01024 23-667, chain 1 of 2): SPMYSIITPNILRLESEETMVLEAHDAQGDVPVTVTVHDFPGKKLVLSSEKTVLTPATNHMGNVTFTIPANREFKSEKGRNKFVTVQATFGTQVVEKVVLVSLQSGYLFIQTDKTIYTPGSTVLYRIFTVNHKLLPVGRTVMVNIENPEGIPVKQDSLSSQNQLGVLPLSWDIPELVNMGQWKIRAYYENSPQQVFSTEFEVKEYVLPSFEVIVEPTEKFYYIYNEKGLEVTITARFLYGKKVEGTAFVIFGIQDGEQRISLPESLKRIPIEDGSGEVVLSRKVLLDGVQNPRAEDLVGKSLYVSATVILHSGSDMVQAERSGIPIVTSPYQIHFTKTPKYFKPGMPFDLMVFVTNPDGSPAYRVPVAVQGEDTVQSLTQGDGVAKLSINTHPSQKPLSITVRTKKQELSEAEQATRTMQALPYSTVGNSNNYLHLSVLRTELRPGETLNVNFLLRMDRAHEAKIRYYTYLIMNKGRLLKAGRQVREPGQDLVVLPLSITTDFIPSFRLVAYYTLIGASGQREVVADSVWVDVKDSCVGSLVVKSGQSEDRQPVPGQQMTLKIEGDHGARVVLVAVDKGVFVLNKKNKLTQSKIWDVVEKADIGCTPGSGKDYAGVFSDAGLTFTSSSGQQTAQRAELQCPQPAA
T1 sequence (P01024 672-1663, chain 2 of 2): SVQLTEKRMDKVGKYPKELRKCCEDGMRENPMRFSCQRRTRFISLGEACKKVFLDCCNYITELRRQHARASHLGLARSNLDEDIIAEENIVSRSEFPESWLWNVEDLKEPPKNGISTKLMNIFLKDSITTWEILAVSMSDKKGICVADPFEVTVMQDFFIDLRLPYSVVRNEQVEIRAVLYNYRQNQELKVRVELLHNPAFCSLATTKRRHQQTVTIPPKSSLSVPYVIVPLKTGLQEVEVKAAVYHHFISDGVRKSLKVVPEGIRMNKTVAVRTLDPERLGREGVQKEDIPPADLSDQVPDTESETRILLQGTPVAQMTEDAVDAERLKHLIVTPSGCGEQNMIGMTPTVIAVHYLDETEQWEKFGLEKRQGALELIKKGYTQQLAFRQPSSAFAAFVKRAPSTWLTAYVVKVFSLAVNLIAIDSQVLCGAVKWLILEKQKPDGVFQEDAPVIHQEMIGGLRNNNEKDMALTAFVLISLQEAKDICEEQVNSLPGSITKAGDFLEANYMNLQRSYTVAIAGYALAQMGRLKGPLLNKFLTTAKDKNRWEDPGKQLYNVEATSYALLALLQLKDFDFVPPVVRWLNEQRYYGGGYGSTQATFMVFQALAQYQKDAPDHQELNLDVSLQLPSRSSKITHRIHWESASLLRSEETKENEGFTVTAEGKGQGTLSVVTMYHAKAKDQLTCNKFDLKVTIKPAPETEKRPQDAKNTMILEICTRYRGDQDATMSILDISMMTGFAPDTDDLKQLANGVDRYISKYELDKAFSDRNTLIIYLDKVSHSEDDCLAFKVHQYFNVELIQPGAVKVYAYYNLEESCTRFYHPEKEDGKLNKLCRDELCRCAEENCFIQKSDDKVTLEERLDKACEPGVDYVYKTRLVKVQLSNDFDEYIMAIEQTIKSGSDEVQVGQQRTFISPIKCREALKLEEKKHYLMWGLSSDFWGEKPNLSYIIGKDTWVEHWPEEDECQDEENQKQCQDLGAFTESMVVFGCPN
Chain of C3b (P01024 23-667 limits assumed, chain 1 of 2): as the sequence (P01024 23-667, chain 1 of 2) above
Chain of C3b (P01024 749-1663 limits assumed, chain 2 of 2): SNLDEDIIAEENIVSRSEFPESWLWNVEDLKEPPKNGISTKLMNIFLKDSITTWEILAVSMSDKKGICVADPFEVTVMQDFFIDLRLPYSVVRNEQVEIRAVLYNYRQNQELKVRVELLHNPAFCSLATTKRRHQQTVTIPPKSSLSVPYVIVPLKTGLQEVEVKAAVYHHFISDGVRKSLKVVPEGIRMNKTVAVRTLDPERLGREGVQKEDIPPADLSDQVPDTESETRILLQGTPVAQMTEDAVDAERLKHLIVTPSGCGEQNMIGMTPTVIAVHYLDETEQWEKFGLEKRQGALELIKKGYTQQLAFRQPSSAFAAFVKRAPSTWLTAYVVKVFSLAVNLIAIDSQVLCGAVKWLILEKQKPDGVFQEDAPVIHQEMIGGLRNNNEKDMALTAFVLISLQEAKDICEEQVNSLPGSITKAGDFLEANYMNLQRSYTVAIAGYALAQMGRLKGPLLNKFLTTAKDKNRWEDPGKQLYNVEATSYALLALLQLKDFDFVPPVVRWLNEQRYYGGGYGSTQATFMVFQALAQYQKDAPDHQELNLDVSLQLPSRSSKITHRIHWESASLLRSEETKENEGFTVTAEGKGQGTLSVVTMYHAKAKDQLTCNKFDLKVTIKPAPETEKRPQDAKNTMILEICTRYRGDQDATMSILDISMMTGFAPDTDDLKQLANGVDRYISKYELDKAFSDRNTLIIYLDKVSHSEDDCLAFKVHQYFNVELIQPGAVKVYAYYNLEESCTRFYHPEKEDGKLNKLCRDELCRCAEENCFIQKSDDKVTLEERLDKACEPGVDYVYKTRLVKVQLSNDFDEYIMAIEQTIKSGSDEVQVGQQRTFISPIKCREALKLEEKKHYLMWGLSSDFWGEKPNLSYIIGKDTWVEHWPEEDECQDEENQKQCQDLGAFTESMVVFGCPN
Chain of C3a (P01024 672-748 limits assumed): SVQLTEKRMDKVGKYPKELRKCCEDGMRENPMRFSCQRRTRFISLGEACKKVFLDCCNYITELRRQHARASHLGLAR

- Kd [2]: 1.8 nM
- Kd [3]: < 0.1 nM
- fold more effective than COMP or COMP-PEG in inhibiting the alternative pathway [5]: ~10 fold
- Kd [8]: 0.28 nM
- Kd [9]: 0.027 nM
- Kd [10]: 0.3 nM
B1: antibody Hz38G10 (antibody, human IgG1, kappa, V domains shown)
VH: QVQLVQSGAEVKKPGASVKVSCKASGYTFTDFYMDWVRQAPGQRLEWMGYIYPHNGGTTYNQQFTGRVTITVDKSASTAYMELSSLRSEDTAVYYCARRGGFDFDYWGQGTLVTVSS
VL: DIQMTQSPSSLSASVGDRVTITCKASENVDTYVSWYQQKPGKAPKLLIYGASNRYTGVPSRFSGSGSGTDFTFTISSLQPEDIATYHCGQSHSYPLTFGQGTKLEIKR
notes: also called humanized 38G10; Hz38G10 intact antibody
- AP human C3 IC50 (hemolysis) [1]: 5.9 nM
- CP human C3 IC50 (hemolysis) [1]: 4 nM
- Alternative Pathway IC50 (hemolysis; run with COMP) [4]: 2.5 nM
- Alternative Pathway IC50 (hemolysis; run with COMP-PEG) [4]: 4 nM
- Classical Pathway IC50 (hemolysis; run with COMP) [4]: 2 nM
- Classical Pathway IC50 (hemolysis; run with COMP-PEG) [4]: 4.1 nM
- Alternative Pathway IC50 (hemolysis), Cyno C3 [6]: 4.8 nM
- Classical Pathway IC50 (hemolysis), Cyno C3 [6]: 0.7 nM
- Alternative Pathway IC50 (hemolysis), Human C3 [7]: 3.9 nM
- Classical Pathway IC50 (hemolysis), Human C3 [7]: 5.2 nM

- binding result [10]: binds
B2: antibody Hz38G10(N55D) (antibody, V domains shown)
VH: B1 VH with N55D
VL: DIQMTQSPSSLSASVGDRVTITCKASENVDTYVSWYQQKPGKAPKLLIYGASNRYTGVPSRFSGSGSGTDFTFTISSLQPEDIATYHCGQSHSYPLTFGQGTKLEIK
notes: Variant of Hz38G10 with N55D in the heavy chain CDR2, mimicking a fully deamidated molecule

- Kd [10]: 6.2 nM
B3: antibody Hz38G10(N55E) (antibody, V domains shown)
VH: B1 VH with N55E
VL: B2 VL
notes: Variant of Hz38G10

- Kd [10]: 0.82 nM
B4: antibody Hz38G10(N55Q) (antibody, V domains shown)
VH: B1 VH with N55Q
VL: B2 VL
notes: Variant of Hz38G10

- Kd [10]: 0.23 nM
B5: antibody Hz38G10(G56T) (antibody, V domains shown)
VH: B1 VH with G56T
VL: B2 VL
notes: Variant of Hz38G10

- Kd [10]: 0.27 nM
B6: antibody Hz38G10(G56A) (antibody, human IgG1, kappa, V domains shown)
VH: B1 VH with G56A
VL: B1 VL
notes: the light chain is the Hz38G10 light chain
- Alternative Pathway IC50 (hemolysis), Cyno C3 [6]: 4.8 nM
- Classical Pathway IC50 (hemolysis), Cyno C3 [6]: 0.6 nM
- Alternative Pathway IC50 (hemolysis), Human C3 [7]: 3.9 nM
- Classical Pathway IC50 (hemolysis), Human C3 [7]: 5.4 nM

- Kd [11]: 0.035 nM
B7: Hz38G10 dsscFv (scFv)
scFv: MDIQMTQSPSSLSASVGDRVTITCKASENVDTYVSWYQQKPGKAPKLLIYGASNRYTGVPSRFSGSGSGTDFTFTISSLQPEDIATYHCGQSHSYPLTFGCGTKLEIKGGGGSGGGGSGGGGSQVQLVQSGAEVKKPGASVKVSCKASGYTFTDFYMDWVRQAPGQCLEWMGYIYPHNGGTTYNQQFTGRVTITVDKSASTAYMELSSLRSEDTAVYYCARRGGFDFDYWGQGTLVTVSS
notes: also called Hz38G10 VL-linker-VH dsscFv
- AP human C3 IC50 (hemolysis) [1]: 19.5 nM
- CP human C3 IC50 (hemolysis) [1]: 15.3 nM

- binding relative to negative control mIgG2 (C3d): -0.02
- binding relative to negative control mIgG2 (Factor Bb): -0.02
- binding relative to negative control mIgG2 (C3a): -0.03
- binding relative to negative control mIgG2 (C3b): 0.76
- binding relative to negative control mIgG2 [14]: 0.83
B8: antibody 62B11 (antibody, V domains shown)
VH: EVKLVESGGGLVQPGGSLKLSCAASGFTFSSYTMSWVRQTPEKRLEWVAYISSGGGTTYYPDTVKGRFTVSRDNAKNTLYLQMSSLRSEDTAMYSCARRYYRGSSLWYFDVWGAGTTVTVSS
VL: DIVMTQSPSSLTVTAGEKVTMSCKSSQSLFNSGSQKNFLTWYQQRPGQPPKLLIYWASTRESGVPDRFTGSGSGTDFTLTISSVQAEDLAVYYCQNDYSYPLTFGAGTKLELK
notes: Mouse hybridoma antibody
- Hemolytic Assay IC50, Cyno AP [12]: ~11 nM
- Hemolytic Assay IC50, Cyno CP [12]: ~1 nM
- Hemolytic Assay IC50, Human AP [13]: 6.6 nM
- Hemolytic Assay IC50, Human CP [13]: 4.2 nM

- Kd [15]: 0.13 nM
- Kd [16]: 0.13 nM
B9: antibody 15C12 (antibody, V domains shown)
VH: EIQLQQSGAELEKPGASVKISCKASGYSFTGYNMHWVKQSHGKSLEWIGNINPYYGTTNSNQKFEDKATLTVDKSSSTAYMQLNSLTSEDSAVYYCARGIYYYGTGYPYFDFWGQGTTLTVSS
VL: DIQMTQTTSSLSASLGDRVTISCRASQDINNYLNWYLQKPDGTVKLLIYYTSRLHSGVPSRFSGSGSGTDYSLTISNLEQEDLATYFCQQGITLPWTFGGGTKLEIK
notes: Mouse hybridoma antibody
- Hemolytic Assay IC50, Cyno AP [12]: 8.8 nM
- Hemolytic Assay IC50, Human AP [13]: 3.7 nM
- Hemolytic Assay IC50, Human CP [13]: 3.8 nM

- Kd [15]: 1.4 nM
- Kd [16]: 1.9 nM
- binding relative to negative control mIgG2 (C3d): 0.01
- binding relative to negative control mIgG2 (Factor Bb): -0.01
- binding relative to negative control mIgG2 (C3a): -0.01
- binding relative to negative control mIgG2 (C3b): 0.38
- binding relative to negative control mIgG2 [14]: 0.47
B10: antibody 3D8 (antibody, V domains shown)
VH: EIQLQQSGAELVKPGASVKISCKASGYSFTGYNMNWVKQSHGKSLEWIGNINPYYGSTNYNQKFKGKATLTVDKSSTTAYMQLDSLTSEDSAVYYCARGYYGGNYPFAYWGQGTLVTVSA
VL: DIQMTQSPASLSASVGETVTITCRASENIYSYLAWYQQKQGKSPQLLVYNAKTLAEGVPSRFSGSGSGTQFSLKINSLQPEDFGSYYCQHYYGTPYTFGGGSKVEIK
notes: Mouse hybridoma antibody raised against human C3
- Hemolytic Assay IC50, Cyno AP [12]: 5.5 nM
- Hemolytic Assay IC50, Human AP [13]: 4.2 nM
- Hemolytic Assay IC50, Human CP [13]: 3.6 nM

- binding relative to negative control mIgG2 (C3d): 0.01
- binding relative to negative control mIgG2 (Factor Bb): -0.01
- binding relative to negative control mIgG2 (C3a): 0
- binding relative to negative control mIgG2 (C3b): 0.66
- binding relative to negative control mIgG2 [14]: 0.83
B11: antibody 38F5 (antibody, V domains shown)
VH: EVMLVESGGALVKPGGSLKLSCTASGFTFSNYAMSWVRQTPEKRLEWVAQTISSGGRYTYYPDSVKGRFTISRDNARNTLYLQMSSLRSEDTAMYYCVRRYYGNSYWYFDVWGAGTTVTVSS
VL: DIVMTQSPSSLSVSAGEKVTMNCKSSQSLLNSGNQKHYLTWYQQKPGQPPKLLIYGASTRGSGVPDRFTGSGSGTDFTLTISSVQAEDLAVYYCQNDHSYPYTFGGGTKLEIK
notes: Mouse hybridoma antibody
- Hemolytic Assay IC50, Cyno AP [12]: 12.9 nM
- Hemolytic Assay IC50, Cyno CP [12]: 2.3 nM
- Hemolytic Assay IC50, Human AP [13]: 9.2 nM
- Hemolytic Assay IC50, Human CP [13]: 6.7 nM
